Target: p130^Cas, endogenous in CHO cells (Chinese hamster (endogenous in CHO))
Assay: co-IP

Substance: FAK P712/715A double point mutant, epitope-tagged, expressed from pCDM8-P712/715A in CHO cells (from UniProt Q00944 1-1053) (enzyme)
- reduction of association relative to wild-type FAK (densitometry): 50%

Source: PMC2132604
